# Laboratory results from the MegaScale stability set (Tsuboyama et al. 2023).
# B1: r11_951_TrROS_Hall (parent)
# chain: KKKYVIKVYFEDTGKEVEIEAESKEEALEAAKRLAEELGLKIKKVEIYP
# Variants of: B1
# Experiment: folding stability dG (cDNA display proteolysis); higher = more stable
# Conditions: PBS, room temperature
row,Variant,folding stability dG [kcal/mol]
1,KKKYVIKVYFEDTGKEVEIEAESKEEAEEAAKRLAEELGLKIKKVEIYP [L28E],4.28
2,KKKYVIKVYFEDTGKEVEIEAESKEEACEAAKRLAEELGLKIKKVEIYP [L28C],4.12
3,KKKYVIKVYFEDTGKEVEIEAESKEEAYEAAKRLAEELGLKIKKVEIYP [L28Y],4.57
4,KKKYVIKVYFEDTGKEVEIEAESKEEANEAAKRLAEELGLKIKKVEIYP [L28N],4.33
5,KKKYVIKVYFEDTGKEVEIEAESKEEAVEAAKRLAEELGLKIKKVEIYP [L28V],4.51
6,KKKYVIKVYFEDTGKEVEIEAESKEEAMEAAKRLAEELGLKIKKVEIYP [L28M],4.46
7,KKKYVIKVYFEDTGKEVEIEAESKEEAKEAAKRLAEELGLKIKKVEIYP [L28K],4.28
8,KKKYVIKVYFEDTGKEVEIEAESKEEAQEAAKRLAEELGLKIKKVEIYP [L28Q],4.31
9,KKKYVIKVYFEDTGKEVEIEAESKEEATEAAKRLAEELGLKIKKVEIYP [L28T],4.16
10,KKKYVIKVYFEDTGKEVEIEAESKEEAFEAAKRLAEELGLKIKKVEIYP [L28F],4.31
11,KKKYVIKVYFEDTGKEVEIEAESKEEAIEAAKRLAEELGLKIKKVEIYP [L28I],4.42
12,KKKYVIKVYFEDTGKEVEIEAESKEEAREAAKRLAEELGLKIKKVEIYP [L28R],4.23
13,KKKYVIKVYFEDTGKEVEIEAESKEEASEAAKRLAEELGLKIKKVEIYP [L28S],4.2
14,KKKYVIKVYFEDTGKEVEIEAESKEEAHEAAKRLAEELGLKIKKVEIYP [L28H],4.44
15,KKKYVIKVYFEDTGKEVEIEAESKEEAWEAAKRLAEELGLKIKKVEIYP [L28W],4.64
16,KKKYVIKVYFEDTGKEVEIEAESKEEAAEAAKRLAEELGLKIKKVEIYP [L28A],4.28
17,KKKYVIKVYFEDTGKEVEIEAESKEEADEAAKRLAEELGLKIKKVEIYP [L28D],4.11
18,KKKYVIKVYFEDTGKEVEIEAESKEEAGEAAKRLAEELGLKIKKVEIYP [L28G],4.17
19,KKKYVIKVYFEDTGKEVEIEAESKEEAPEAAKRLAEELGLKIKKVEIYP [L28P],3.39
20,KKKYVIKVYFEDTGKEVEIEAESKEEQLEAAKRLAEELGLKIKKVEIYP [A27Q],2.23
21,KKKYVIKVYFEDTGKEVEIEAESKEEDLEAAKRLAEELGLKIKKVEIYP [A27D],1.49
22,KKKYVIKVYFEDTGKEVEIEAESKEEELEAAKRLAEELGLKIKKVEIYP [A27E],1.78

row,Variant,folding stability dG [kcal/mol]
1,KKKYVIKVYFEDTGKEVEIEAESKEEILEAAKRLAEELGLKIKKVEIYP [A27I],4.09
2,KKKYVIKVYFEDTGKEVEIEAESKEEMLEAAKRLAEELGLKIKKVEIYP [A27M],3.71
3,KKKYVIKVYFEDTGKEVEIEAESKEEGLEAAKRLAEELGLKIKKVEIYP [A27G],4.68
4,KKKYVIKVYFEDTGKEVEIEAESKEEPLEAAKRLAEELGLKIKKVEIYP [A27P],2.74
5,KKKYVIKVYFEDTGKEVEIEAESKEEFLEAAKRLAEELGLKIKKVEIYP [A27F],3.8
6,KKKYVIKVYFEDTGKEVEIEAESKEELLEAAKRLAEELGLKIKKVEIYP [A27L],4.34
7,KKKYVIKVYFEDTGKEVEIEAESKEEHLEAAKRLAEELGLKIKKVEIYP [A27H],2.78
8,KKKYVIKVYFEDTGKEVEIEAESKEESLEAAKRLAEELGLKIKKVEIYP [A27S],4.03
9,KKKYVIKVYFEDTGKEVEIEAESKEEKLEAAKRLAEELGLKIKKVEIYP [A27K],1.74
10,KKKYVIKVYFEDTGKEVEIEAESKEECLEAAKRLAEELGLKIKKVEIYP [A27C],4.23
11,KKKYVIKVYFEDTGKEVEIEAESKEEWLEAAKRLAEELGLKIKKVEIYP [A27W],3.93
12,KKKYVIKVYFEDTGKEVEIEAESKEENLEAAKRLAEELGLKIKKVEIYP [A27N],2.01
13,KKKYVIKVYFEDTGKEVEIEAESKEERLEAAKRLAEELGLKIKKVEIYP [A27R],1.78
14,KKKYVIKVYFEDTGKEVEIEAESKEEYLEAAKRLAEELGLKIKKVEIYP [A27Y],3.79
15,KKKYVIKVYFEDTGKEVEIEAESKEETLEAAKRLAEELGLKIKKVEIYP [A27T],3.58
16,KKKYVIKVYFEDTGKEVEIEAESKEEVLEAAKRLAEELGLKIKKVEIYP [A27V],4.38
17,KKKYVIKVYFEDTGKEVEIEAESKAEALEAAKRLAEELGLKIKKVEIYP [E25A],4.4
18,KKKYVIKVYFEDTGKEVEIEAESKVEALEAAKRLAEELGLKIKKVEIYP [E25V],4.36
19,KKKYVIKVYFEDTGKEVEIEAESKKEALEAAKRLAEELGLKIKKVEIYP [E25K],4.22
20,KKKYVIKVYFEDTGKEVEIEAESKREALEAAKRLAEELGLKIKKVEIYP [E25R],4.22
21,KKKYVIKVYFEDTGKEVEIEAESKHEALEAAKRLAEELGLKIKKVEIYP [E25H],4.39
22,KKKYVIKVYFEDTGKEVEIEAESKNEALEAAKRLAEELGLKIKKVEIYP [E25N],4.16

row,Variant,folding stability dG [kcal/mol]
1,KKKYVIKVYFEDTGKEVEIEAESKPEALEAAKRLAEELGLKIKKVEIYP [E25P],4.16
2,KKKYVIKVYFEDTGKEVEIEAESKYEALEAAKRLAEELGLKIKKVEIYP [E25Y],4.33
3,KKKYVIKVYFEDTGKEVEIEAESKFEALEAAKRLAEELGLKIKKVEIYP [E25F],4.34
4,KKKYVIKVYFEDTGKEVEIEAESKCEALEAAKRLAEELGLKIKKVEIYP [E25C],4.28
5,KKKYVIKVYFEDTGKEVEIEAESKGEALEAAKRLAEELGLKIKKVEIYP [E25G],4.15
6,KKKYVIKVYFEDTGKEVEIEAESKLEALEAAKRLAEELGLKIKKVEIYP [E25L],4.18
7,KKKYVIKVYFEDTGKEVEIEAESKWEALEAAKRLAEELGLKIKKVEIYP [E25W],4.25
8,KKKYVIKVYFEDTGKEVEIEAESKTEALEAAKRLAEELGLKIKKVEIYP [E25T],4.28
9,KKKYVIKVYFEDTGKEVEIEAESKIEALEAAKRLAEELGLKIKKVEIYP [E25I],4.27
10,KKKYVIKVYFEDTGKEVEIEAESKDEALEAAKRLAEELGLKIKKVEIYP [E25D],4.58
11,KKKYVIKVYFEDTGKEVEIEAESKSEALEAAKRLAEELGLKIKKVEIYP [E25S],4.12
12,KKKYVIKVYFEDTGKEVEIEAESKMEALEAAKRLAEELGLKIKKVEIYP [E25M],4.32
13,KKKYVIKVYFEDTGKEVEIEAESKQEALEAAKRLAEELGLKIKKVEIYP [E25Q],4.18
14,KKKYVIKVYFEDTGKEVEIEAESIEEALEAAKRLAEELGLKIKKVEIYP [K24I],4.52
15,KKKYVIKVYFEDTGKEVEIEAESVEEALEAAKRLAEELGLKIKKVEIYP [K24V],4.6
16,KKKYVIKVYFEDTGKEVEIEAESCEEALEAAKRLAEELGLKIKKVEIYP [K24C],4.53
17,KKKYVIKVYFEDTGKEVEIEAESSEEALEAAKRLAEELGLKIKKVEIYP [K24S],4.29
18,KKKYVIKVYFEDTGKEVEIEAESREEALEAAKRLAEELGLKIKKVEIYP [K24R],4.3
19,KKKYVIKVYFEDTGKEVEIEAESLEEALEAAKRLAEELGLKIKKVEIYP [K24L],4.48
20,KKKYVIKVYFEDTGKEVEIEAESNEEALEAAKRLAEELGLKIKKVEIYP [K24N],4.46
21,KKKYVIKVYFEDTGKEVEIEAESQEEALEAAKRLAEELGLKIKKVEIYP [K24Q],4.38
22,KKKYVIKVYFEDTGKEVEIEAESDEEALEAAKRLAEELGLKIKKVEIYP [K24D],4.37

row,Variant,folding stability dG [kcal/mol]
1,KKKYVIKVYFEDTGKEVEIEAESYEEALEAAKRLAEELGLKIKKVEIYP [K24Y],4.5
2,KKKYVIKVYFEDTGKEVEIEAESHEEALEAAKRLAEELGLKIKKVEIYP [K24H],4.45
3,KKKYVIKVYFEDTGKEVEIEAESMEEALEAAKRLAEELGLKIKKVEIYP [K24M],4.46
4,KKKYVIKVYFEDTGKEVEIEAESAEEALEAAKRLAEELGLKIKKVEIYP [K24A],4.55
5,KKKYVIKVYFEDTGKEVEIEAESTEEALEAAKRLAEELGLKIKKVEIYP [K24T],4.57
6,KKKYVIKVYFEDTGKEVEIEAESWEEALEAAKRLAEELGLKIKKVEIYP [K24W],4.51
7,KKKYVIKVYFEDTGKEVEIEAESPEEALEAAKRLAEELGLKIKKVEIYP [K24P],4.19
8,KKKYVIKVYFEDTGKEVEIEAESFEEALEAAKRLAEELGLKIKKVEIYP [K24F],4.32
9,KKKYVIKVYFEDTGKEVEIEAESEEEALEAAKRLAEELGLKIKKVEIYP [K24E],4.54
10,KKKYVIKVYFEDTGKEVEIEAESGEEALEAAKRLAEELGLKIKKVEIYP [K24G],4.41
11,KKKYVIKVYFEDTGKEVEIEAESKEEALCAAKRLAEELGLKIKKVEIYP [E29C],4.58
12,KKKYVIKVYFEDTGKEVEIEAESKEEALAAAKRLAEELGLKIKKVEIYP [E29A],4.75
13,KKKYVIKVYFEDTGKEVEIEAEPKEEALEAAKRLAEELGLKIKKVEIYP [S23P],2.12
14,KKKYVIKVYFEDTGKEVEIEAEWKEEALEAAKRLAEELGLKIKKVEIYP [S23W],4.13
15,KKKYVIKVYFEDTGKEVEIEAENKEEALEAAKRLAEELGLKIKKVEIYP [S23N],4.38
16,KKKYVIKVYFEDTGKEVEIEAEQKEEALEAAKRLAEELGLKIKKVEIYP [S23Q],3.89
17,KKKYVIKVYFEDTGKEVEIEAEYKEEALEAAKRLAEELGLKIKKVEIYP [S23Y],3.98
18,KKKYVIKVYFEDTGKEVEIEAEMKEEALEAAKRLAEELGLKIKKVEIYP [S23M],3.83
19,KKKYVIKVYFEDTGKEVEIEAETKEEALEAAKRLAEELGLKIKKVEIYP [S23T],4.35
20,KKKYVIKVYFEDTGKEVEIEAERKEEALEAAKRLAEELGLKIKKVEIYP [S23R],4
21,KKKYVIKVYFEDTGKEVEIEAEVKEEALEAAKRLAEELGLKIKKVEIYP [S23V],3.91
22,KKKYVIKVYFEDTGKEVEIEAESKELALEAAKRLAEELGLKIKKVEIYP [E26L],4.46

row,Variant,folding stability dG [kcal/mol]
1,KKKYVIKVYFEDTGKEVEIEAESKEFALEAAKRLAEELGLKIKKVEIYP [E26F],4.83
2,KKKYVIKVYFEDTGKEVEIEAESKEIALEAAKRLAEELGLKIKKVEIYP [E26I],4.22
3,KKKYVIKVYFEDTGKEVEIEAESKECALEAAKRLAEELGLKIKKVEIYP [E26C],4.23
4,KKKYVIKVYFEDTGKEVEIEAESKEAALEAAKRLAEELGLKIKKVEIYP [E26A],4.66
5,KKKYVIKVYFEDTGKEVEIEAESKEVALEAAKRLAEELGLKIKKVEIYP [E26V],4.24
6,KKKYVIKVYFEDTGKEVEIEAESKEGALEAAKRLAEELGLKIKKVEIYP [E26G],4.58
7,KKKYVIKVYFEDTGKEVEIEAESKEKALEAAKRLAEELGLKIKKVEIYP [E26K],4.24
8,KKKYVIKVYFEDTGKEVEIEAESKEYALEAAKRLAEELGLKIKKVEIYP [E26Y],4.83
9,KKKYVIKVYFEDTGKEVEIEAESKENALEAAKRLAEELGLKIKKVEIYP [E26N],4.33
10,KKKYVIKVYFEDTGKEVEIEAESKEHALEAAKRLAEELGLKIKKVEIYP [E26H],4.5
11,KKKYVIKVYFEDTGKEVEIEAESKEMALEAAKRLAEELGLKIKKVEIYP [E26M],4.38
12,KKKYVIKVYFEDTGKEVEIEAESKESALEAAKRLAEELGLKIKKVEIYP [E26S],4.39
13,KKKYVIKVYFEDTGKEVEIEAESKEWALEAAKRLAEELGLKIKKVEIYP [E26W],4.92
14,KKKYVIKVYFEDTGKEVEIEAESKEPALEAAKRLAEELGLKIKKVEIYP [E26P],3.07
15,KKKYVIKVYFEDTGKEVEIEAESKETALEAAKRLAEELGLKIKKVEIYP [E26T],4.28
16,KKKYVIKVYFEDTGKEVEIEAESKERALEAAKRLAEELGLKIKKVEIYP [E26R],4.39
17,KKKYVIKVYFEDTGKEVEIEAESKEDALEAAKRLAEELGLKIKKVEIYP [E26D],4.32
18,KKKYVIKVYFEDTGKEVEIEAESKEQALEAAKRLAEELGLKIKKVEIYP [E26Q],4.36
